Here are results for four molecules from patent US8741844B2, “Use of mutated antithrombins for treating or preventing coagulation disorders” (Universite Paris-Sud XI, priority 2007, dated 2014).

For one assay, the target named is T1, factor Xa (Homo sapiens, UniProt P00742).
T1 construct: purchased Kordia
Kind of assay: Kinetic assay of factor Xa inhibition by antithrombins in a purified system (chromogenic substrate, continuous or discontinuous). Type of assay: biochemical. The conditions noted are these: for factor Xa inhibition in continuous method: saturating pentasaccharide concentration; for anticoagulant / anti-factor Xa activity / inhibition rate constant (kon) for factor Xa: discontinuous method; for factor Xa inhibitory activity: with or without pentasaccharide, compared with plasma / wild type antithrombin. The protocol:
Briefly, factor Xa is incubated with an excess of tested antithrombins (corresponding to plasma antithrombin, or wild type antithrombin or mutated antithrombins and varying in each assay realized) in the presence or absence of pentasaccharide (Fondaparinux sodique, Arixtra®, GlaxoSmithKline) and the factor Xa residual activity is measured as a function of time. The pentasaccharide is added in excess in the reaction media so that every tested antithrombin is bound to the pentasaccharide. In the absence of pentasaccharide, polybrene is added in order to neutralize any sulfated glycosaminoglycan that may be present in the reaction media. The residual factor Xa activity is measured as the increase in absorbance at 405 nm resulting from cleavage of the chromogenic substrate (S2765 or S2222, Chromogenix) using a microplate reader (Dynatech MR 5000). The analysis of the data is performed using the GraphPad Prism version 3 software. Absorbance recording is continuous or discontinuous according to the expected inhibition rate constant (kon).
The inhibition rate constant (kon) is the second order rate constant given in M^−1·s^−1 which define the velocity of stable complex formation between protease and antithrombin (higher is the kon value, faster will the complex be established).
When the expected kon is lower than 10^4 M^−1·s^−1 the discontinuous method is used. Factor Xa (0.2 to 1 μM, or 0.1 to 1 μM) is incubated with tested antithrombins (0.2 to 10 μM, or 1 to 10 μM) in the presence of pentasaccharide (10 to 100 μM) or polybrene (100 μg/ml) in a final volume of 10 μl for 10 seconds to 5 hours, or 10 seconds to 24 hours. At the end of this incubation period, 190 μl of kinetic buffer containing 200 μM substrate is added and absorbance at 405 nm is recorded.
The kinetic rate constant (k) is estimated by fitting the substrate hydrolysis initial rate curve to equation (1) using non-linear regression with v0 and v∞ being the substrate hydrolysis rate at time to or too respectively. […] (1)
The inhibition rate constant (kon) is calculated from the rate constant (k) using equation (2) where AT is the tested antithrombin concentration. k=AT·kon (2)
When the expected kon is higher than 10^4 M^−1·s^−1′ the continuous method is used. The tested antithrombin (0.01 to 1 μM, or 0.1 to 1 μM) is incubated with the substrate (200 μM) in the presence of pentasaccharide or polybrene in a final volume of 100 μL, or 190 μl, and the reaction is started by addition of 100 μL, or 10 μL, of factor Xa (2 nM or 10 nM). The rate constant (k) is obtained by fitting the substrate hydrolysis curve to equation (3) or (3′) using non-linear regression analysis where A0 is the absorbance at t0, and vi and vs are respectively the initial and final rates of substrate hydrolysis in the absence of tested antithrombin. A405=A0+vi·(1−exp(−k·t))/k. (3) Equation (3′) is also used, particularly in presence of plasma. A405=A0+vs*t+(vi−vs)*(1−exp(−k·t))/k. (3′)
The inhibition rate constant (kon) is calculated from the kinetic constant (k) using equation (4) that takes into account the competitive effect of the substrate, with S being the initial substrate concentration, Km, the Michaelis constant for factor Xa-substrate interaction, AT the tested antithrombin concentration. k=(kon/(1+S/Km))·[AT] (4)
Mutated antithrombins and wild type AT inhibitory activity are measured in the same conditions and compared with plasma AT inhibitory activity.

Assay [1] deals with pentasaccharide bound murine antithrombin (plasma anti-Xa activity). Description: Anti factor Xa assay in mouse plasma supplemented with Fondaparinux. Type of assay: biochemical. The protocol:
During the animal experimentation (see detailed protocol below), human mutated antithrombins compete with murine antithrombin for their binding to the pentasaccharide. Thus, preliminary in vitro assays are performed to determine the human mutated antithrombin concentration necessary to compete with the murine antithrombin present in mouse plasma supplemented with Fondaparinux.
These experiments are performed as described in section II-b, using mouse plasma instead of human plasma.

[2] abbreviates: in the presence of pentasaccharide.

T1 sequence (P00742 235-488 limits assumed): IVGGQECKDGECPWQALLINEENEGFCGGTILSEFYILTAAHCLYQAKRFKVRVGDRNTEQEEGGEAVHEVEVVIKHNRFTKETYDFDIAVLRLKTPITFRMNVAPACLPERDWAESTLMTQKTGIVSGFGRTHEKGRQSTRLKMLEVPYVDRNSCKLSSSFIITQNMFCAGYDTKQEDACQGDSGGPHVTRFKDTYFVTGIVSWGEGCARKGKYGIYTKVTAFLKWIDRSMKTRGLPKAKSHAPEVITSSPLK
T1 sequence (P00742 41-179 partner limits assumed): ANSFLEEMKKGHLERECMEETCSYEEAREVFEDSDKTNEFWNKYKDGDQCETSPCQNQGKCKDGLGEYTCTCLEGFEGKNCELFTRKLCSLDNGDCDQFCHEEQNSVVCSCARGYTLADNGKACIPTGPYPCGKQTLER

Turning to “AT-N135Q-R393H: human antithrombin with substitution at 393 by Histidine and at 135 by Glutamine”, in the assay with factor Xa, the “factor Xa inhibition in continuous method” value is “slow factor Xa inhibitors” and the “factor Xa inhibitory activity” value is “negligible”. For the same molecule, in the assay with factor Xa (setting [2]), the “anticoagulant / anti-factor Xa activity” value was “largely reduced” and the “inhibition rate constant (kon) for factor Xa” value turned out to be 4415 M⁻¹ s⁻¹. For the same molecule, the “effect on anti-Xa activity of pentasaccharide contained in mouse plasma” value (from here on “effect on anti-Xa activity”) in assay [1] is listed as “significant decrease”.

On to “AT-R393H: human antithrombin (SEQ ID NO:2) with substitution of the amino acid at position 393 by Histidine”, for which the “factor Xa inhibitory activity” value with factor Xa was “negligible”. Besides, the “effect on anti-Xa activity” value in assay [1] was “significant decrease”.

B1: AT-N135Q-ΔR393: human antithrombin with deletion of position 393 and substitution at 135 by Glutamine (protein, listed as Homo sapiens)
chain: HGSPVDICTAKPRDIPMNPMCIYRSPEKKATEDEGSEQKIPEATNRRVWELSKANSRFATTFYQHLADSKNDNDNIFLSPLSISTAFAMTKLGACNDTLQQLMEVFKFDTISEKTSDQIHFFFAKLNCRLYRKAQKSSKLVSANRLFGDKSLTFNETYQDISELVYGAKLQPLDFKENAEQSRAAINKWVSNKTEGRITDVIPSEAINELTVLVLVNTIYFKGLWKSKFSPENTRKELFYKADGESCSASMMYQEGKFRYRRVAEGTQVLELPFKGDDITMVLILPKPEKSLAKVEKELTPEVLQEWLDELEEMMLVVHMPRFRIEDGFSLKEQLQDMGLVDLFSPEKSKLPGIVAEGRDDLYVSDAFHKAFLEVNEEGSEAAASTAVVIAGSLNPNRVTFKANRPFLVFIREVPLNTIIFMGRVANPCVK
On to B1, for which the “factor Xa inhibitory activity” value with factor Xa is “negligible”. Moreover, in assay [1], the “effect on anti-Xa activity” value is reported as “significant decrease”.

B2: AT-N135Q-Pro394: human antithrombin with Proline inserted between 393 and 394 and substitution at 135 by Glutamine (protein, listed as Homo sapiens)
chain: HGSPVDICTAKPRDIPMNPMCIYRSPEKKATEDEGSEQKIPEATNRRVWELSKANSRFATTFYQHLADSKNDNDNIFLSPLSISTAFAMTKLGACNDTLQQLMEVFKFDTISEKTSDQIHFFFAKLNCRLYRKAQKSSKLVSANRLFGDKSLTFNETYQDISELVYGAKLQPLDFKENAEQSRAAINKWVSNKTEGRITDVIPSEAINELTVLVLVNTIYFKGLWKSKFSPENTRKELFYKADGESCSASMMYQEGKFRYRRVAEGTQVLELPFKGDDITMVLILPKPEKSLAKVEKELTPEVLQEWLDELEEMMLVVHMPRFRIEDGFSLKEQLQDMGLVDLFSPEKSKLPGIVAEGRDDLYVSDAFHKAFLEVNEEGSEAAASTAVVIAGRPSLNPNRVTFKANRPFLVFIREVPLNTIIFMGRVANPCVK
Turning to B2, in the assay with factor Xa, the “factor Xa inhibition in continuous method” value is given as “slow factor Xa inhibitors” and the “factor Xa inhibitory activity” value is listed as “negligible”. In addition, in the assay with factor Xa (setting [2]), the “anticoagulant / anti-factor Xa activity” value is reported as “almost devoid of anti-factor Xa activity”; the “inhibition rate constant (kon) for factor Xa” value worked out at 33 M⁻¹ s⁻¹; the “kon, times lower than plasma AT” value is given as “at least 7600 times”. In assay [1], the “effect on anti-Xa activity” value is given as “significant decrease”.
